Experimental findings from the supplement of paper PMC10567573 are described below.

Sequences and labels used below:
B1: SPOPL (parent)
chain: YTGRAPNLDKMADNLLAAADKYAL
B2: UBE2R2 (parent)
chain: DPQSGELPSERWNPTQNVRTILLS
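Also: lentivirally expressed fusions sorted by FACS into six bins by GFP to DsRed ratio, PSI derived from sequencing read proportions per bin multiplied by bin number.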

Variants of B1 are the subject of the first data set. Nature of the data set: protein stability index of a GFP-peptide fusion (GPS, HEK-293T) (PSI 1-6); higher = more stable. As to conditions: c terminus: a fixed tail appended.
Regarding YTGRAPNLDKMADNLLAAALKYAL, the protein stability index came to 1.84.

With YTGRAPNLDKMADNLLAAAEKYAL, the protein stability index amounted to 1.61.

On to YTGRAPNLDKMADNLLAAARKYAL, for which the protein stability index amounted to 2.57.

Take YTGRAPNLDKMADNLLAAAGKYAL: the protein stability index came to 2.29.

Take YTGRAPNLDKMADNLLAAACKYAL: the protein stability index came to 1.99.

In the case of YTGRAPNLDKMADNLLAAAQKYAL, the protein stability index turned out to be 1.53.

As for YTGRAPNLDKMADNLLAAAPKYAL, the protein stability index was found to be 1.41.

On to YTGRAPNLDKMADNLLAAAHKYAL, for which the protein stability index was determined as 2.14.

As to YTGRAPNLDKMADNLLAAATKYAL, the protein stability index is 2.34.

Regarding YTGRAPNLDKMADNLLAAAFKYAL, the protein stability index came to 1.39.

With YTGRAPNLDKMADNLLAAANKYAL, the protein stability index came to 1.3.

With YTGRAPNLDKMADNLLAAAKKYAL, the protein stability index is 1.4.

As to YTGRAPNLDKMADNLLAAAVKYAL, the protein stability index was 3.92.

YTGRAPNLDKMADNLLAAASKYAL: the protein stability index turned out to be 1.48.

Regarding YTGRAPNLDKMADNLLAAAIKYAL, the protein stability index was 1.71.

For YTGRAPNLDKMADNLLAAADCYAL, the protein stability index was 1.88.

In the case of YTGRAPNLDKMADNLLAAADDYAL, the protein stability index is 2.36.

For YTGRAPNLDKMADNLLAAADWYAL, the protein stability index was found to be 2.02.

Regarding YTGRAPNLDKMADNLLAAADSYAL, the protein stability index was 1.92.

For the variant YTGRAPNLDKMADNLLAAADVYAL, the protein stability index was 2.53.

As for YTGRAPNLDKMADNLLAAADNYAL, the protein stability index stood at 2.11.

Consider YTGRAPNLDKMADNLLAAADYYAL, for which the protein stability index was determined as 1.13.

As for YTGRAPNLDKMADNLLAAADIYAL, the protein stability index is 1.42.

Take YTGRAPNLDKMADNLLAAADMYAL: the protein stability index was found to be 1.65.

Regarding YTGRAPNLDKMADNLLAAADQYAL, the protein stability index was determined as 3.78.

As to YTGRAPNLDKMADNLLAAADEYAL, the protein stability index was 3.6.

Regarding YTGRAPNLDKMADNLLAAADAYAL, the protein stability index is 2.04.

Consider YTGRAPNLDKMADNLLAAADPYAL, for which the protein stability index was determined as 2.48.

Take YTGRAPNLDKMADNLLAAADHYAL: the protein stability index was determined as 1.89.

Take YTGRAPNLDKMADNLLAAADGYAL: the protein stability index is 1.81.

As for YTGRAPNLDKMADNLLAAADLYAL, the protein stability index is 2.02.

For YTGRAPNLDKMADNLLAAADKNAL, the protein stability index is 3.3.

As to YTGRAPNLDKMADNLLAAADKGAL, the protein stability index came out at 3.2.

With YTGRAPNLDKMADNLLAAADKVAL, the protein stability index was 2.27.

Consider YTGRAPNLDKMADNLLAAADKKAL, for which the protein stability index came to 3.07.

For the variant YTGRAPNLDKMADNLLAAADKPAL, the protein stability index amounted to 2.73.

Turning to YTGRAPNLDKMADNLLAAADKTAL, the protein stability index was 2.72.

For the variant YTGRAPNLDKMADNLLAAADKSAL, the protein stability index turned out to be 3.66.

Regarding YTGRAPNLDKMADNLLAAADKFAL, the protein stability index was found to be 1.92.

For YTGRAPNLDKMADNLLAAADKWAL, the protein stability index is 1.67.

For YTGRAPNLDKMADNLLAAADKLAL, the protein stability index worked out at 1.61.

As for YTGRAPNLDKMADNLLAAADKEAL, the protein stability index was 3.04.

As to YTGRAPNLDKMADNLLAAADKRAL, the protein stability index is 3.05.

With YTGRAPNLDKMADNLLAAADKIAL, the protein stability index is 2.22.

Turning to YTGRAPNLDKMADNLLAAADKQAL, the protein stability index worked out at 2.17.

For the variant YTGRAPNLDKMADNLLAAADKMAL, the protein stability index worked out at 1.93.

As to YTGRAPNLDKMADNLLAAADKDAL, the protein stability index is 2.03.

As for YTGRAPNLDKMADNLLAAADKHAL, the protein stability index came to 2.18.

Variants of B2 are the subject of a further data set. The description is as above. The conditions noted are these: c terminus: a fixed tail appended.
EPQSGELPSERWNPTQNVRTILLS: the protein stability index stood at 3.31.

For VPQSGELPSERWNPTQNVRTILLS, the protein stability index was 2.35.

With RPQSGELPSERWNPTQNVRTILLS, the protein stability index worked out at 3.17.

Regarding FPQSGELPSERWNPTQNVRTILLS, the protein stability index came to 2.58.

As for KPQSGELPSERWNPTQNVRTILLS, the protein stability index came out at 3.7.

With QPQSGELPSERWNPTQNVRTILLS, the protein stability index was 3.88.

Turning to IPQSGELPSERWNPTQNVRTILLS, the protein stability index came out at 2.67.

Regarding LPQSGELPSERWNPTQNVRTILLS, the protein stability index worked out at 3.58.

In the case of GPQSGELPSERWNPTQNVRTILLS, the protein stability index was 3.26.

As to APQSGELPSERWNPTQNVRTILLS, the protein stability index came out at 2.69.

Take NPQSGELPSERWNPTQNVRTILLS: the protein stability index is 3.09.

TPQSGELPSERWNPTQNVRTILLS: the protein stability index was found to be 2.63.

For CPQSGELPSERWNPTQNVRTILLS, the protein stability index came to 3.93.

On to HPQSGELPSERWNPTQNVRTILLS, for which the protein stability index worked out at 3.34.

Turning to SPQSGELPSERWNPTQNVRTILLS, the protein stability index turned out to be 2.25.

For DPISGELPSERWNPTQNVRTILLS, the protein stability index was determined as 3.24.

In the case of DPTSGELPSERWNPTQNVRTILLS, the protein stability index was 4.11.

Consider DPSSGELPSERWNPTQNVRTILLS, for which the protein stability index worked out at 3.41.

Turning to DPMSGELPSERWNPTQNVRTILLS, the protein stability index worked out at 3.53.

As for DPGSGELPSERWNPTQNVRTILLS, the protein stability index was found to be 3.79.

For the variant DPLSGELPSERWNPTQNVRTILLS, the protein stability index came to 3.65.

With DPHSGELPSERWNPTQNVRTILLS, the protein stability index came to 3.22.

Consider DPESGELPSERWNPTQNVRTILLS, for which the protein stability index is 3.82.

In the case of DPFSGELPSERWNPTQNVRTILLS, the protein stability index is 4.05.

DPRSGELPSERWNPTQNVRTILLS: the protein stability index is 3.4.

Turning to DPKSGELPSERWNPTQNVRTILLS, the protein stability index was determined as 3.06.

In the case of DPDSGELPSERWNPTQNVRTILLS, the protein stability index is 3.9.

With DPASGELPSERWNPTQNVRTILLS, the protein stability index is 3.67.

For the variant DPPSGELPSERWNPTQNVRTILLS, the protein stability index amounted to 3.01.

Consider DPCSGELPSERWNPTQNVRTILLS, for which the protein stability index was found to be 3.81.

For the variant DPNSGELPSERWNPTQNVRTILLS, the protein stability index turned out to be 3.45.

On to DTQSGELPSERWNPTQNVRTILLS, for which the protein stability index came to 3.52.

For the variant DHQSGELPSERWNPTQNVRTILLS, the protein stability index is 2.88.

With DEQSGELPSERWNPTQNVRTILLS, the protein stability index came to 3.59.

Regarding DWQSGELPSERWNPTQNVRTILLS, the protein stability index stood at 2.34.

Take DKQSGELPSERWNPTQNVRTILLS: the protein stability index was found to be 3.95.

As for DMQSGELPSERWNPTQNVRTILLS, the protein stability index was 3.16.

As to DGQSGELPSERWNPTQNVRTILLS, the protein stability index was 3.06.

As for DIQSGELPSERWNPTQNVRTILLS, the protein stability index stood at 2.5.

On to DQQSGELPSERWNPTQNVRTILLS, for which the protein stability index was found to be 3.22.

For the variant DNQSGELPSERWNPTQNVRTILLS, the protein stability index is 3.35.

On to DAQSGELPSERWNPTQNVRTILLS, for which the protein stability index amounted to 3.66.

As for DFQSGELPSERWNPTQNVRTILLS, the protein stability index was determined as 2.81.

Regarding DRQSGELPSERWNPTQNVRTILLS, the protein stability index was 3.09.

Consider DLQSGELPSERWNPTQNVRTILLS, for which the protein stability index turned out to be 2.99.

For DVQSGELPSERWNPTQNVRTILLS, the protein stability index was 3.61.
